Reference: patent publication US6492117, “Zinc finger polypeptides capable of binding DNA quadruplexes” (Gendaq Limited)

Target: glutathione-S-transferase (UniProt P08515 P08515:1-218)
Assay: EMSA; GST alone control
Details: tags: GST (pGEX-3X, Amersham-Pharmacia); label: 5'-32P; G4, antiparallel intramolecular
Procedure: Binding reactions are performed in a final volume of 10 µl, using 10 fmol of labelled oligonucleotide and various amounts of purified Gq1* in binding buffer: 20 mM Tris-HCl pH 7.5, 1 mM EDTA, 1 mM DTT, 6% glycerol, 100 µg/ml BSA, 1 µg/ml calf thymus DNA, 50 µM ZnCl_2 and KCl to 150 mM. Binding reactions are carried out at room temperature for 1 hour. The samples are loaded on a 8% polyacrylamide (acrylamide:bisacrylamide=33:1) non-denaturing gel. The buffer in the gel and for electrophoresis is 0.5 X TB buffer (Sambrook, J., Fritsch, E. F., & Maniatis, T. (1989) in Molecular Cloning, A Laboratory Manual, Cold Spring Harbor Laboratory Press, Cold Spring Harbor.). Electrophoresis is performed at 15 V/cm, for 2 hours, at 4° C. […] The bands are quantified using Imagequant software. The fraction of DNA that is bound and free is determined after normalization by summing the total number of counts in each lane (Senear D F, Brenowitz M (1991) J Biol Chem Jul 25;266(21):13661–71). To minimise any error due to perturbation of the equilibrium under electrophoretic conditions, the fraction of free DNA is measured at various protein concentrations rather than measuring the amount of complex formed (Cann J R (1989) J Biol Chem Oct 15;264(29):17032–40; Garner M M, Revzin A (1981) Nucleic Acids Res Jul 10;9(13):3047–60). […]

Chain of glutathione-S-transferase (P08515 whole entry, one chain of several): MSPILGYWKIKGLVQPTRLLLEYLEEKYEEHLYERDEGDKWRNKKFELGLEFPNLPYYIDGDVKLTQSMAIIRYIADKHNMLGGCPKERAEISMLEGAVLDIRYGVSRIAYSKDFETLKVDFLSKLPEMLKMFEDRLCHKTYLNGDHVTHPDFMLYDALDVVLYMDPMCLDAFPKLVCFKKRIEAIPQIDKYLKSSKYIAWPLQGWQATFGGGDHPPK

Q: Does GGTTAGGGTTAGGGTTAGGGTTAGGGTTAG (structured_DNA) [Htelo] bind?
A: no binding
